In general, Kd refers to the concentration at which binding is half-saturated. Higher therefore signals weaker binding.

The target in this test is LRP (low density lipoprotein receptor-related protein) (human) (UniProt Q07954). As to the kind of experiment: SPR, Biacore 3000, LRP amine-coupled to CM5 chip, A2 domain as analyte 62.5-500 nM, 1:1 Langmuir fit, 25 C.
“HPC4-tagged A2 domain mutant 433D->N (from UniProt P00451 392-759) (ligand)” displayed a Kd of 170 nM.

In turn, “HPC4-tagged A2 domain mutant 488S->N & 490R->T (from UniProt P00451 392-759) (ligand)” came in with a Kd of 260 nM.

The substance “HPC4-tagged A2 domain of wild-type FVIII (from UniProt P00451 392-759) (ligand)” displayed a Kd of 20 nM.

These data come from patent US20080227691A1.
